Experimental data as given in US20250333497A1 (University of California, published 2025).

T1: Full length PLXDC1 (PLXDC1-Full) (Homo sapiens (Human), UniProt Q8IUK5 19-500)
T1 construct: also called full PLXDC1 protein
T1 sequence: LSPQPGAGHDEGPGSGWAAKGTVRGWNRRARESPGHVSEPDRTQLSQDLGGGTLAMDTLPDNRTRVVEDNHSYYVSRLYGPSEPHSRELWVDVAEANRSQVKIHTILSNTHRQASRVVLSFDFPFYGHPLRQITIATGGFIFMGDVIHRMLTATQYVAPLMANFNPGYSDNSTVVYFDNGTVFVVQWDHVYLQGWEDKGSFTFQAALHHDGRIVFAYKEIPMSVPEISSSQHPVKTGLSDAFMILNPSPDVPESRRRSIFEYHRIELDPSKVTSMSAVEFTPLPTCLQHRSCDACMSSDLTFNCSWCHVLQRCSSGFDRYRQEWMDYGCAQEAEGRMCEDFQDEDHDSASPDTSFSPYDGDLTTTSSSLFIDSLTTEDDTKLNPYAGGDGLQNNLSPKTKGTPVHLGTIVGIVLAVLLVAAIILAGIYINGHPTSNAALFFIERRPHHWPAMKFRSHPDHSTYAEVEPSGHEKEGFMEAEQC


Experiments:
[1] = target: T1, Full length PLXDC1 (PLXDC1-Full); test: staining of transfected cells (FIG. 3-4)
Excerpt: (§1) Both full length PLXDC1 and Domain A deleted PLXDC1 (PLXDC1-dA) have an epitope tag on the N-terminus.

[2] = target: T2, domain A-deleted PLXDC1 (PLXDC1-dA) (Homo sapiens (Human), UniProt Q8IUK5 128-500); test: staining of transfected cells (FIG. 3C-H)
T2 construct: also called mutant with Domain A deleted
Excerpt: as §1

[3] = target: T2, domain A-deleted PLXDC1 (PLXDC1-dA); test: staining of transfected cells (FIG. 4A-H)
Excerpt: as §1

Binder	binding result [1]	binding result [2]	binding result [3]
A001 (antibody, V domains shown, VH/VL only; also called 3-C11) VH: EVQLLESGGGLVQPGGSLRLSCAASGFTFSSYAMSWVRQAPGKGLEWVSTIYASGATTYYADSVKGRFTISRDNSKNTLYLQMNSLRAEDTAVYYCARLKLYHAAFDIWGQGTLVTVSS VL: DIQMTQSPSSLSASVGDRVTITCRASQDISSYLNWYQQKPGKAPKLLIYTASSLQSGVPSRFSGSGSGTDFTLTISSLQPEDFATYYCQQSYSYPLTFGQGTKVEIK	binds	no binding	–
A006 (antibody, V domains shown, VH/VL only; also called 3-G7) VH: QVQLVQSGAEVKKPGSSVKVSCKASGGTFSTEYISWVRQAPGQGLEWMGRIIPVLGITNYAQKFQGRVTITADESTSTAYMELSSLRSEDTAVYYCARHLGPPYLVTYSHGFDVWGQGTLVTVSS VL: EIVMTQSPATLSVSPGERATLSCRASQSLGTNLAWYQQKPGQAPRLLIYGASTRATGIPARFSGSGSGTEFTLTISSLQSEDFAVYYCQQYYEAPPTFGQGTKVEIK	binds	–	no binding
A007 (antibody, V domains shown, VH/VL only; also called 8-A7) VH: EVQLLESGGGLVQPGGSLRLSCAASGFTFRNYAMSWVRQAPGKGLEWVSSISGGGINTYYADSVKGRFTISRDNSKNTLYLQMNSLRAEDTAVYYCARVRSYSGPGYFDYWGQGTLVTVSS VL: EIVMTQSPATLSVSPGDRATLSCRASRSVSSNLAWYQQKPGQAPRLLIYGASTRATGIPARFSGSGSGTEFTLTISSLQSEDFAVYYCQQYYNWPLTFGQGTKVEIK	binds	–	no binding
A003 (antibody, V domains shown, VH/VL only; also called 5-E2) VH: QVQLVESGGGVVQPGRSLRLSCAASGFTFRDYGMHWVRQAPGKGLEWVAVISYHGRNEYYANSVKGRFTISRDNSKNTLYLQMNSLRAEDTAVYYCARGAYGDDFDVWGQGTLVTVSS VL: not shown	binds	no binding	–

The next lines start with the values.

binding result [1]	binding result [2]	binding result [3]	Binder
binds	–	no binding	A004 (antibody, V domains shown, VH/VL only; also called 2-H2) VH: QVQLVESGGGVVQPGRSLRLSCAASGFTFSDYGMHWVRQAPGKGLEWVAVISYEGSNEYYADSVKGRFTISRDNSKNTLYLQMNSLRAEDTAVYYCARGSEGSGFDVWGQGTLVTVSS VL: DIQMTQSPSSLSASVGDRVTITCRASQRISNYLNWYQQKPGKAPKLLIYAASSLQSGVPSRFSGSGSGTDFTLTISSLQPEDFATYYCQQSYSPPYTFGQGTKVEIK
binds	–	no binding	A005 (antibody, V domains shown, VH/VL only; also called 3-G6) VH: QVQLVESGGGVVQPGRSLRLSCAASGFTFSDYGMHWVRQAPGKGLEWVAVISYDGSRKYYANSVKGRFTISRDNSKNTLYLQMNSLRAEDTAVYYCARGSYSDGFDVWGQGTLVTVSS VL: DIQMTQSPSSLSASVGDRVTITCRASQSISRYLNWYQQKTGKAPKLLIYGASSLQSGVPSRFSGSGSGTDFTLTISSLQPEDFATYYCQQSYSTPYTFGQGTKVEIK
binds	no binding	–	A002 (antibody, V domains shown, VH/VL only; also called 4-A8) VH: EVQLLESGGGLVQPGGSLRLSCAASGFTFKNYAMSWVRQAPGKGLEWVSAISASGGYTYYADSVKGRFTISRDNSKNTLYLQMNSLRAEDTAVYYCARGRWGAFDYWGQGTLVTVSS VL: QSVLTQPPSVSGAPGQRVTISCTGSSSNIGSGYDVHWYQQLPGTAPKLLIYGNRNRPSGVPDRFSGSKSGTSASLAITGLQAEDEADYYCQSYDSSLKTWVFGGGTKLTVL
